The supplement of paper PMC7877785
± gives the uncertainty stated by the source.

Assay: self-splicing fitness, log relative to wild type (ln ratio); higher = more splicing; Tetrahymena group I intron in knt gene, E. coli kanamycin selection, DiMSum; sequences stand for … in CUCUCU…GGAGGGAAAAGUUAUCAGGCAUGCACCUGGUAGCUAGUCUUUAAACCAAUAGAUUGCAUCGGUUUAAAAGGCAAGACCGUCAAAUUGCGGGAAAGGGGUCAACAGCCGUUCAGUACCAAGUCUCAGGGGAAACUUUGAGAUGGCCUUGCAAAGGGUAUGGUAAUAAGCUGACGGACAUGGUCCUAACCACGCAGCCAAGUCCUAAGUCAACAGAUCUUCUGUUGAUAUGGAUGCAGUUCACAGACUAAAUGUCGGUCGGGGAAGAUGUAUUCUUCUCAUAAGAUAUAGUCGGACCUCUCCUUAAUGGGAGCUAGCGGAUGAAGUGAUGCAACACUGGAGCCGCUGGGAACUAAUUUGUAUGCGAAAGUAUAUUGAUUAGUUUUGGAGUACUCGUGGUCG
In short: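 Colonies from six replicate transformations of E. coli BL21(DE3) were pooled and amplicon-sequenced on an Illumina HiSeq 2500. The library placed an intron with all eight P1ex-region nucleotides randomised inside the knt kanamycin-resistance gene on pET-22b(+), and cells grew overnight at 37°C or 30°C on LB agar with or without 25 μg/mL kanamycin (plus 100 μg/mL carbenicillin, 50 μM IPTG, 0.2% rhamnose). Fitness is the DiMSum error-weighted combination of wild-type-normalised replicate fold changes, kanamycin versus none.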

Row | Sequence | self-splicing fitness (ln) (30 °C) | self-splicing fitness (ln) (37 °C)
1 | CGGUAGCAAUAUUACGACAU | -2.405 ± 0.019 | -1.38 ± 0.035
2 | CGGUAGCAAUAUUACGACCG | -2.88 ± 0.36 | -2.07 ± 0.42
3 | CGGUAGCAAUAUUACGACUG | -2.54 ± 0.28 | -1.86 ± 0.32
4 | CGGUAGCAAUAUUACGAGUU | -3.87 ± 0.36 | -3.26 ± 0.27
5 | CGGUAGCAAUAUUACGAUGA | -1.38 ± 0.13 | -0.66 ± 0.16
6 | CGGUAGCAAUAUUACGCAUA | -4.37 ± 0.42 | -2.34 ± 0.26
7 | CGGUAGCAAUAUUACGCUGG | -0.433 ± 0.13 | -0.681 ± 0.15
8 | CGGUAGCAAUAUUACGGAUU | -2.63 ± 0.36 | -2.23 ± 0.34
9 | CGGUAGCAAUAUUACGGCCU | -0.555 ± 0.12 | -0.911 ± 0.12
10 | CGGUAGCAAUAUUACGGCUC | -1.15 ± 0.079 | -0.532 ± 0.11
11 | CGGUAGCAAUAUUACGGGAG | -3.22 ± 0.17 | -1.71 ± 0.14
12 | CGGUAGCAAUAUUACGGGAU | -3.86 ± 0.47 | 
13 | CGGUAGCAAUAUUACGGGUG | -0.483 ± 0.068 | 0.146 ± 0.077
14 | CGGUAGCAAUAUUACGGUCU | -0.673 ± 0.068 | -0.251 ± 0.093
15 | CGGUAGCAAUAUUACGGUGC | -2.22 ± 0.27 | -2.48 ± 0.38
16 | CGGUAGCAAUAUUACGGUGG | -0.519 ± 0.092 | -0.124 ± 0.12
17 | CGGUAGCAAUAUUACGUAAA | -1.14 ± 0.08 | -2.33 ± 0.17
18 | CGGUAGCAAUAUUACGUAUU | -2 ± 0.32 | -2.16 ± 0.27
19 | CGGUAGCAAUAUUACGUCGG | -0.5 ± 0.095 | 0.638 ± 0.12
20 | CGGUAGCAAUAUUACGUGAG | -0.593 ± 0.059 | 0.467 ± 0.092
21 | CGGUAGCAAUAUUACGUGCA | -1.61 ± 0.12 | -0.501 ± 0.13
22 | CGGUAGCAAUAUUACGUGCC | -1.18 ± 0.14 | -4.06 ± 0.34
23 | CGGUAGCAAUAUUACGUUAC | -3.32 ± 0.36 | -2.09 ± 0.31
24 | CGGUAGCAAUAUUACGUUGA | -3.27 ± 0.35 | -1.76 ± 0.17

Row | Sequence | self-splicing fitness (ln) (30 °C) | self-splicing fitness (ln) (37 °C)
25 | CGUAAGCAAUAUUACGAACA | -1.23 ± 0.19 | -0.207 ± 0.22
26 | CGUAAGCAAUAUUACGAAUU | -3.76 ± 0.29 | -2.17 ± 0.21
27 | CGUAAGCAAUAUUACGACCG | -0.867 ± 0.1 | -0.46 ± 0.19
28 | CGUAAGCAAUAUUACGACGC | -1.86 ± 0.3 | -2.02 ± 0.28
29 | CGUAAGCAAUAUUACGACUA | -2.29 ± 0.27 | -1.96 ± 0.24
30 | CGUAAGCAAUAUUACGAUCC | -2.82 ± 0.33 | -1.82 ± 0.3
31 | CGUAAGCAAUAUUACGCACG | -1.76 ± 0.14 | -1.06 ± 0.17
32 | CGUAAGCAAUAUUACGCAGG | -2.25 ± 0.094 | -1.02 ± 0.11
33 | CGUAAGCAAUAUUACGCCAG | -2.15 ± 0.15 | -0.931 ± 0.18
34 | CGUAAGCAAUAUUACGCGCA | -1.3 ± 0.16 | -0.345 ± 0.14
35 | CGUAAGCAAUAUUACGCGCU | -2.03 ± 0.14 | -1.52 ± 0.15
36 | CGUAAGCAAUAUUACGCGUC | -3.79 ± 0.21 | -2.87 ± 0.19
37 | CGUAAGCAAUAUUACGGACA | -0.986 ± 0.099 | -1.18 ± 0.12
38 | CGUAAGCAAUAUUACGGCAC | -3.68 ± 0.29 | -0.595 ± 0.22
39 | CGUAAGCAAUAUUACGGCCG | -0.668 ± 0.11 | 0.0976 ± 0.13
40 | CGUAAGCAAUAUUACGGCCU | -3.28 ± 0.26 | -1.54 ± 0.22
41 | CGUAAGCAAUAUUACGGGUA | -2.63 ± 0.15 | -2.48 ± 0.21
42 | CGUAAGCAAUAUUACGGUGU | -4.11 ± 0.25 | -3.24 ± 0.21
43 | CGUAAGCAAUAUUACGUACA | -1.59 ± 0.13 | -0.137 ± 0.13
44 | CGUAAGCAAUAUUACGUCGA | -2.94 ± 0.21 | -3.07 ± 0.2
45 | CGUAAGCAAUAUUACGUGCC | -2.64 ± 0.23 | -1.67 ± 0.2
46 | CGUAAGCAAUAUUACGUGUU | -2.37 ± 0.1 | -3.63 ± 0.2
47 | CGUAAGCAAUAUUACGUUAU | -4.56 ± 0.26 | -1.45 ± 0.19
